Laboratory results: paper PMC9238395, “Identification and Tetramer Structure of Hemin-Binding Protein SPD_0310 Linked to Iron Homeostasis and Virulence of Streptococcus pneumoniae” (mSystems, 2022)

B1: SPD_0310 (natural protein)
chain: MKKQAFSSEQYLNLQRDHILERINQFDGKLYLEFGGKMLEDFHAARVLPGYEPDNKIKLLQELKEQVEVVIAINASNIEHSKARGDLGISYDQEVLRLIDKFNELGIFVGSVVITQYAGQPAADAFRNQLEKNGIDSYLHYPIKGYPTDMDHIISPEGMGKNDYIKTSRNLIVVTAPGPGSGKLATCMSNMYHDQINGIKSGYAKFETFPIWNLPLHHPVNLAYEAATADLDDVNMIDPFHLQTYGETTVNYNRDIEIFPVLKRMLERILGKSPYASPTDMGVNMVGFAITDDEAAVEASKQEIIRRYYQTVLDFKAEKVGEAAVKKIELLMNDLGITPADRKVAVVARQKAEETGGPALAFELPNGEIVTGKNSELFGPTAAALINAIKKSADIAKEVKLIEPEVVKPIQGLKIDHLGSRNPRLHSNEILIALAITATENPDAARAMEELGNLKGSEAHSTIILTDEDKNVLRKLGINVTFDPYYQYDRLYRK
notes: SPD_0310, hypothetical protein of the UPF0371 family, S. pneumoniae D39; spd_0310 gene cloned from genomic DNA into pGEX-4T-1 (BamH I/Sal I); Homotetramer by crystal structure and DLS; also called apo-0310; apo-SPD_0310
B2: GAPDH (natural protein, S. pneumoniae D39, UniProt A0A0H2US80 1-335, looked up)
chain: MVVKVGINGFGRIGRLAFRRIQNVEGVEVTRINDLTDPVMLAHLLKYDTTQGRFDGTVEVKEGGFEVNGKFIKVSAERDPEQIDWATDGVEIVLEATGFFAKKEAAEKHLKGGAKKVVITAPGGNDVKTVVFNTNHDVLDGTETVISGASCTTNCLAPMAKALQDNFGVVEGLMTTIHAYTGDQMILDGPHRGGDLRRARAGAANIVPNSTGAAKAIGLVIPELNGKLDGSAQRVPTPTGSVTELVAVLEKNVTVDEVNAAMKAASNESYGYTEDPIVSSDIVGMSYGSLFDATQTKVLDVDGKQLVKVVSWYDNEMSYTAQLVRTLEYFAKIAK
notes: GAPDH (Gap) of S. pneumoniae D39, recombinant; also called Gly-3-pho dehydrogenase; source: expressed and purified using the GST system
B3: SPD_0090 (natural protein, S. pneumoniae D39, UniProt A0A0H2ZQK8 1-491, looked up)
chain: CGNLTGNSKKAADSGDKPVIKMYQIGDKPDNLDELLANANKIIEEKVGAKLDIQYLGWGDYGKKMSVITSSGENYDIAFADNYIVNAQKGAYADLTELYKKEGKDLYKALDPAYIKGNTVNGKIYAVPVAANVASSQNFAFNGTLLAKYGIDISGVTSYETLEPVLKQIKEKAPDVVPFAIGKVFIPSDNFDYPVANGLPFVIDLEGDTTKVVNRYEVPRFKEHLKTLHKFYEAGYIPKDVATSDTSFDLQQDTWFVREETVGPADYGNSLLSRVANKDIQIKPITNFIKKNQTTQVANFVISNNSKNKEKSMEILNLLNTNPELLNGLVYGPEGKNWEKIEGKENRVRVLDGYKGNTHMGGWNTGNNWILYINENVTDQQIENSKKELAEAKESPALGFIFNTDNVKSEISAIANTMQQFDTAINTGTVDPDKAIPELMEKLKSEGAYEKVLNEMQKQYDEFLKNKK
notes: source: expressed and purified using the GST system
B4: SPD_1609 (natural protein, S. pneumoniae D39, UniProt A0A0H2ZL87 1-355, looked up)
chain: CSGGSNSTTASSSEEKADKSQELVIYSNSVSNGRGDWLTAKAKEAGFNIKMVDIAGAQLADRVIAEKNNAVADMVFGIGAVDSNKIRDQKLLVQYKPKWLDKIDQSLSDKDNYYNPVIVQPLVLIGAPDVKEMPKDWTELGSKYKGKYSIYGLQGGTGRAILASILVRYLDEKGDLGVSEKGWEVAKEYFANAYTLQKGESSVVKALDKESPIQYGMIWGSGALIGQKEQNVEFKVMTPEIGVPFVTEQTMVLSTSKKQALAKEFIDWFGQSEIQVEYSKKFGSIPANKDALKELPEDTKKFVDQVKPQNIDWEAVGKHLDEWVEKAELEYVK
notes: as for B3
B5: SPD_0226 (natural protein)
chain: MTVGLSYEDSAVKLLNDGANIKVVYPKEGTVFLPASAAIVKKSKNMENAKKFIDFIISQEVQDTLGTTTTNRPVRKNAKTSENMKPIDKIKTLTEDYDYVIKNKSDIVKKYNEVFTDIQSKQ
notes: SPD_0226, intracellular iron transporter of S. pneumoniae D39
B6: SPD_0227 (natural protein)
chain: MNIEGYSDLLKPELKGKIATADPANSSSAFAQLTNMLQAQGGYKDDKAWSYVKDLFTLIDGIVK
notes: SPD_0227, intracellular iron transporter of S. pneumoniae D39

Key:
SPD_0310 [1] = biological target: T1, SPD_0310 (Streptococcus pneumoniae, UniProt Q04MC1, M38A/L39A/G88A/R97A); test: fluorescence quenching titration; format: binding
T1 sequence (Q04MC1 1-494 M38A/L39A/G88A/R97A): B1 chain

SPD_0310 [2] = biological target: T2, SPD_0310 (Streptococcus pneumoniae, UniProt Q04MC1, E40A/R307A); test: fluorescence quenching titration; format: binding
T2 sequence (Q04MC1 1-494 E40A/R307A): B1 chain

SPD_0310 [3] = biological target: T3, SPD_0310 (Streptococcus pneumoniae, UniProt Q04MC1); test: SPR; also dialysis/ICP-MS, hemin-agarose pulldown, UV-Vis shift, CD thermal shift, stopped-flow fluorescence; format: binding
T3 construct: recombinant SPD_0310 expressed from pGEX-4T-1, GST tag removed with thrombin; homotetramer

[4] = biological target: SPD_0310 (S. pneumoniae D39) (UniProt Q04MC1); test: SPR; OpenSPR; SPD_0310 immobilised on a gold nanoparticle COOH sensor chip; analytes in 1× PBS, 30 μL/min; regeneration with 0.5 to ~10 mM HCl; 1:1 model
[5] = biological target: the molecule itself; test: dynamic light scattering; fresh SPD_0310 in the native state, 3 μM in 1× PBS, 25°C
SPD_0310 [6] = biological target: B1; test: SPR; OpenSPR; SPD_0310 immobilised on a gold nanoparticle COOH sensor chip; analytes in 1× PBS, 30 μL/min; regeneration with 0.5 to ~10 mM HCl; 1:1 model; conditions: both partners purified

| Molecule | Kd (SPD_0310 [6]) | also measured |
| --- | --- | --- |
| C=CC1=C(C)C2=Cc3c(C=C)c(C)c4[n]3[Fe]([Cl])[n]3c(c(C)c(CCC(=O)O)c3=CC3=NC(=C4)C(C)=C3CCC(=O)O)=CC1=N2 [hemin] |  | % of WT binding constant (SPD_0310 [1]): 56 % of WT binding constant; % of WT binding constant (SPD_0310 [2]): 11 % of WT binding constant; Kd (SPD_0310 [3]): 96.9 nM |
| bovine lactoferrin (natural protein) |  | Kd [4]: 303 nM |
| B1 |  | stoichiometry N [5]: 4 |
| B2 | 103 ± 1.29 nM |  |
| B3 | 3.41 ± 0.01 nM |  |
| B4 | 6.92 ± 0.08 nM |  |
| B5 | 1070 ± 100 nM |  |
| B6 | 420 ± 30 nM |  |
